Source: patent publication WO2015137441A1

Biological target: myrNAP22 (myristoylated NAP22), rat (rat) (UniProt Q05175)
Assay: immunoprecipitation with control beads, supernatant on SDS-PAGE, Coomassie staining

Sequence of UniProt Q05175 (Q05175 2-220 limits assumed): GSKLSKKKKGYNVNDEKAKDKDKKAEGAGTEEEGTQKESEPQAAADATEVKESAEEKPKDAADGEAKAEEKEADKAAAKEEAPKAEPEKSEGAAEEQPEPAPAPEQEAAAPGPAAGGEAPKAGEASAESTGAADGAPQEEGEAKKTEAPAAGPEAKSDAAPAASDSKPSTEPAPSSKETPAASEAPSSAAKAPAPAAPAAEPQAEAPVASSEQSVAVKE

signal intensity of myrNAP22 left in the supernatant (lane 2) relative to input (lane 3): 90%
Substance: control clone (an antibody clone randomly cloned from the library) (scFv)
